Experiment [1] deals with T1, wild type full-length cynomolgus monkey TIGIT expressed on CHO cells (cynomolgus monkey, UniProt A0A7N9I9V4 89-312).
T1 construct: whole, on cells; also called cynomolgus TIGIT-CHO cells
Description: flow cytometry on CHO cells expressing cynomolgus TIGIT, PE anti-human IgG Fc detection.

For experiment [2], the target named is T2, full-length isoform 2 ECD of cynomolgus monkey CD96 (His-tagged) (cynomolgus monkey).
T2 construct: also called His-tagged isoform 2 of cynomolgus monkey CD96; cyno CD96 extracellular domain isoform 2
T2 chain: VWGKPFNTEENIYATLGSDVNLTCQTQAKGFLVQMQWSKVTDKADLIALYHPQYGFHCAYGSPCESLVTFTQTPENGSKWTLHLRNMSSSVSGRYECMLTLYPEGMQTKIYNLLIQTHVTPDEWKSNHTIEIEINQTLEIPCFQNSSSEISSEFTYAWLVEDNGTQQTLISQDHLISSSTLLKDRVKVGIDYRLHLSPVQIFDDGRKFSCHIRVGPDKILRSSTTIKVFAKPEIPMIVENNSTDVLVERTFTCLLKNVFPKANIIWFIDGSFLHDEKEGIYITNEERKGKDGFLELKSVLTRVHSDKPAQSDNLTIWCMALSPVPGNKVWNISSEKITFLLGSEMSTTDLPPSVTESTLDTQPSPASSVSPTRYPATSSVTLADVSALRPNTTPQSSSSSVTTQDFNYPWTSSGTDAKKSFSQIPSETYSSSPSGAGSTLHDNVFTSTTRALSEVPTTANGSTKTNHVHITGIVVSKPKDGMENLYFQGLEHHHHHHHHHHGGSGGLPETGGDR
Description: SPR Biacore T200, Protein A capture, 1:1 model, experiment #2. As to the method: (§1) Briefly, surface plasmon resonance experiments were performed using a Biacore T200 instrument, and the association rate (kₐ), dissociation rate (kd), and dissociation constant (KD) were calculated from each experiment using a 1:1 binding model with Biacore T200 Evaluation Software.
Multispecific molecules were captured using a 30-sec injection at a flow rate of 10 μl/min to reach about 350 resonance units (RUs). […] The sensor chip was regenerated between cycles with two 30-sec injections of 10 mM glycine, pH 1.5. Sensorgrams were evaluated and fit to a simple Langmuir 1:1 interaction model using the global data analysis option of BIAevaluation 3.0 software. Data quality was verified by visually inspecting deviations and curve fitting, and by evaluating the parameters of Rₘₐₓ, Chi2, and Tc.

Experiment [3] has as its target T3, full-length ECD of cynomolgus monkey TIGIT (His-tagged) (cynomolgus monkey).
T3 construct: also called His-tagged cynomolgus monkey TIGIT; cyno TIGIT extracellular domain
Description: SPR Biacore T200, geomean of experiments #1 and #2. As to the method: as §1
(§2) Antibodies were captured using a 30-sec injection at a flow rate of 10 μl/min to reach about 500 resonance units (RUs). […] The sensor chip was regenerated between cycles with two 30-sec injections of 10 mM glycine, pH 1.5. Sensorgrams were evaluated and fit to a simple Langmuir 1:1 interaction model using the global data analysis option of BIAevaluation 3.0 software. Data quality was verified by visually inspecting deviations and curve fitting, and by evaluating the parameters of Rₘₐₓ, Chi2, and Tc.

In experiment [4] the target is T4, full-length ECD of human TIGIT (His-tagged) (human).
T4 construct: also called His-tagged human TIGIT; human TIGIT extracellular domain
T4 chain: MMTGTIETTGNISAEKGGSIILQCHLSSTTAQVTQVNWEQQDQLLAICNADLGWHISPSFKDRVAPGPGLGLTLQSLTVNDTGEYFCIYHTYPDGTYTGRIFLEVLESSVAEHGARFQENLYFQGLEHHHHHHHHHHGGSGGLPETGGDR
Description: SPR Biacore T200, geomean of experiments #1 and #2. The protocol:
as §1, §2

The target in experiment [5] is CD8+ T cells (CD3-stimulated; Day 4). Description: flow cytometry on activated primary human T cells, gated CD8+, donor 2; PE anti-human IgG detection.
Description: A total of 8 dilutions ranging from 50 μg/mL to 0.000005 μg/mL were prepared. After four days, the sample plates were centrifuged for two minutes at 2000 rpm, and supernatants were discarded. Samples were blocked with FcγR Block prepared in FACs buffer at 5 μL per 100 μL test for 10 minutes. Sample plates were then centrifuged for two minutes at 2000 rpm, and the supernatant was discarded. The cells were then re-suspended in 100 μL of anti-TIGIT×CD96 multispecific molecule or a relevant isotype control at the concentrations shown in FIGS. 26A-26F. Sample plates were incubated for 30 minutes at 4° C. Cells were washed by addition of cold sample buffer and centrifuged for two minutes at 2000 rpm, and the supernatant was discarded. This wash was repeated once.
Cells were then resuspended in a cocktail of fluorescently labeled antibodies. A cocktail of fluorescently labeled antibodies sufficient for all samples was prepared in FACs buffer. 100 μL of antibody per well was then added to a round-bottom 96-well plate. […]
Antibody binding was measured by flow cytometry using a BD LSR Fortessa Flow Cytometer. […] 100,000 events were recorded for each sample. Samples were analyzed by sequentially gating on the following populations: FSC-A vs. SSC-A, FSC-H vs. FSC-A, SSC-A vs. LIVE/DEAD, CD4 vs. CD8, and SSC vs. CD25. Mean fluorescence intensity (MFI) was calculated.
In experiment [6] the target is T5, wild type full-length human TIGIT expressed on cells (human, UniProt Q495A1 22-244).
T5 construct: whole, on cells; also called human TIGIT-CHO; human TIGIT CHO cells
T5 sequence (looked up): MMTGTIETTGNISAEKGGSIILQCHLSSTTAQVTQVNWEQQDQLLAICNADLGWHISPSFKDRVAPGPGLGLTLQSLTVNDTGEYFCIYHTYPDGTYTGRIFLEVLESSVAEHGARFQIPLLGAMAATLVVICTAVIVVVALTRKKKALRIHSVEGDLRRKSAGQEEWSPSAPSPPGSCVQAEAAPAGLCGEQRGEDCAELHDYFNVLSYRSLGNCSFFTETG
Description: flow cytometry on CHO cells expressing human TIGIT, PE anti-human IgG Fc detection. As to the method:
(§3) For the antibody binding assay, a frozen aliquot of human TIGIT-CHO cells was thawed at 37° C. and then transferred to a tube containing DPBS supplemented with 0.5% Bovine Serum Albumin and 0.05% Sodium Azide (FACS Buffer). Cells were centrifuged at 300 g for five minutes. The supernatant was discarded, and cells resuspended in FACS buffer were seeded in a 96-well U-bottom tissue culture plate at a density of 2×10⁵ cells per well in 50 μL. In a separate microplate, a 2× concentrated intermediate stock of each antibody was prepared. Antibodies were serially diluted 1-to-4 in FACS buffer. A total of 11 working dilutions ranging from 60 μg/mL to 0.000057 μg/mL were prepared. Fifty microlitres of each dilution were then transferred to the microplate containing human TIGIT-CHO cells. The cells were then incubated for 45 minutes at 4° C. […] After a 30-minute incubation on ice, the cells were washed twice with cold FACS Buffer, and the cells were analyzed by flow cytometry (BD LSR Fortessa Flow Cytometer). The data were analyzed using the FlowJo software by sequentially gating the FSC-A vs. SSC-A, and SSC-H vs. SSC-A. Mean fluorescence intensity (MFI) values for PE were calculated, and the data were plotted by GraphPad Prism software.

For experiment [7], the target named is T1, wild type full-length cynomolgus monkey …. Description: flow cytometry, blocking of human CD155-Fc-PE binding to CHO cells expressing cynomolgus TIGIT.
For experiment [8], the target named is T5, wild type full-length human TIGIT …. Description: flow cytometry, human TIGIT CHO cells, geomean of 2 experiments. As to the method:
as §3

T1 sequence (A0A7N9I9V4 entry or part of it): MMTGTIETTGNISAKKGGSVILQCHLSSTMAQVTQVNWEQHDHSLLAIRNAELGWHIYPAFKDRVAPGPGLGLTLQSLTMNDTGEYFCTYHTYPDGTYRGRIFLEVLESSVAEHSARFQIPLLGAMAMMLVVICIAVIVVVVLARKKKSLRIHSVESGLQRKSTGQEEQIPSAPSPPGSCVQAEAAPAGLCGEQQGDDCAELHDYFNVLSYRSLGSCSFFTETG

B1: anti-TIGIT×CD96 multispecific molecule BA123 (bispecific antibody, human IgG1, kappa, lambda)
heavy 1: QVQLVQSGAEVKKPGASVKVSCKASGYTFTSYGISWVRQAPGQGLEWMGWISAYNANTNYAQKLQGRVTMTTDTSTSTAYMELRSLRSDDTAVYYCARSAGVLGGMDVWGRGTLVTVSSASTKGPSVFPLAPSSKSTSGGTAALGCLVKDYFPEPVTVSWNSGALTSGVHTFPAVLQSSGLYSLSSVVTVPSSSLGTQTYICNVNHKPSNTKVDKRVEPKSCDKTHTCPPCPAPELLGGPDVFLFPPKPKDTLMISRTPEVTCVVVDVSHEDPEVKFNWYVDGVEVHNAKTKPREEQYNSTYRVVSVLTVLHQDWLNGKEYKCKVSNKALPAPIEKTISKAKGQPREPQVYTLPPSREEMTKNQVSLSCAVKGFYPSDIAVEWESNGQPENNYKTTPPVLDSDGSFFLVSKLTVDKSRWQQGNVFSCSVMHEALHNHYTQKSLSLSPG
light 1: not shown
heavy 2: EVQLVQSGAEVKKPGSSVKVSCKASGYTFASYGISWVRQAPGQGLEWMGGITPFFNRVDVAEKFQGRVTITADKSTSTAYIELSSLRSEDTAVYYCARDLRRGGVGDAFDIWGRGTLVTVSSASTKGPSVFPLAPSSKSTSGGTAALGCLVKDYFPEPVTVSWNSGALTSGVHTFPAVLQSSGLYSLSSVVTVPSSSLGTQTYICNVNHKPSNTKVDKRVEPKSCDKTHTCPPCPAPELLGGPDVFLFPPKPKDTLMISRTPEVTCVVVDVSHEDPEVKFNWYVDGVEVHNAKTKPREEQYNSTYRVVSVLTVLHQDWLNGKEYKCKVSNKALPLPEEKTISKAKGQPREPQVYTLPPSREEMTKNQVSLWCLVKGFYPSDIAVEWESNGQPENNYKTTPPVLDSDGSFFLYSKLTVDKSRWQQGNVFSCSVMHEALHNHYTQKSLSLSPG
light 2: QSALTQPRSVSGSPGQSVTISCTGTSPDVGSHAYRSWYQQHPGKAPKLMIYEVSYRPSGVSNRFSGSKSGNTASLTISGLQAEDEADYYCSSYPPSSATVFGAGTKLTVLGQPKAAPSVTLFPPSSEELQANKATLVCLISDFYPGAVTVAWKADSSPVKAGVETTTPSKQSNNKYAASSYLSLTPEQWKSHRSYSCQVTHEGSTVEKTVAPTEC
notes: copies: 1 + 1 + 1 + 1
Regarding B1, the “EC50 (read off the curve)” value in experiment [1] is about 0.2 µg/mL. Besides, in experiment [2], binding was put at a Kd of 42.7 nM, the koff was 0.00324 s⁻¹ and the kon worked out at 75900 M⁻¹ s⁻¹.

B2: anti-TIGIT monospecific antibody BA148 (antibody, human IgG1, lambda)
heavy: EVQLVQSGAEVKKPGSSVKVSCKASGYTFASYGISWVRQAPGQGLEWMGGITPFFNRVDVAEKFQGRVTITADKSTSTAYIELSSLRSEDTAVYYCARDLRRGGVGDAFDIWGRGTLVTVSSASTKGPSVFPLAPSSKSTSGGTAALGCLVKDYFPEPVTVSWNSGALTSGVHTFPAVLQSSGLYSLSSVVTVPSSSLGTQTYICNVNHKPSNTKVDKRVEPKSCDKTHTCPPCPAPELLGGPDVFLFPPKPKDTLMISRTPEVTCVVVDVSHEDPEVKFNWYVDGVEVHNAKTKPREEQYNSTYRVVSVLTVLHQDWLNGKEYKCKVSNKALPLPEEKTISKAKGQPREPQVYTLPPSREEMTKNQVSLTCLVKGFYPSDIAVEWESNGQPENNYKTTPPVLDSDGSFFLYSKLTVDKSRWQQGNVFSCSVMHEALHNHYTQKSLSLSPGK
light: B1 light 2
notes: IgG1; also called anti-TIGIT IgG1 antibody BA148
On to B2, for which the Kd in experiment [3] is 3.9 nM; in experiment [4], 0.54 nM.

B3: anti-TIGIT×CD96 multispecific molecule BA127 (bispecific antibody, human IgG1, kappa, lambda)
heavy 1: QVQLVQSGAEVKKPGASVKVSCKASGYTFTTYALHWVRQAPGQRLEWMGWINTGSGDTKYSQKFQGRVTITRDTSASTAYMELSSLRSEDTAVYYCARSLGVYYGMDVWGQGTLVTVSSASTKGPSVFPLAPSSKSTSGGTAALGCLVKDYFPEPVTVSWNSGALTSGVHTFPAVLQSSGLYSLSSVVTVPSSSLGTQTYICNVNHKPSNTKVDKRVEPKSCDKTHTCPPCPAPELLGGPDVFLFPPKPKDTLMISRTPEVTCVVVDVSHEDPEVKFNWYVDGVEVHNAKTKPREEQYNSTYRVVSVLTVLHQDWLNGKEYKCKVSNKALPAPIEKTISKAKGQPREPQVYTLPPSREEMTKNQVSLSCAVKGFYPSDIAVEWESNGQPENNYKTTPPVLDSDGSFFLVSKLTVDKSRWQQGNVFSCSVMHEALHNHYTQKSLSLSPG
light 1: not shown
heavy 2: B1 heavy 2
light 2: B1 light 2
notes: Anti-CD96 arm = BA139, anti-TIGIT arm = BA150; copies: 1 + 1 + 1 + 1
As for B3, the results for the “EC50 (read off the curve)” value in experiment [5] and in experiment [6] were about 0.3 µg/mL and about 0.03 µg/mL, respectively. Also, the “IC50 (read off the curve)” value in experiment [7] was about 3 µg/mL. Moreover, in experiment [8], the half-maximal effective concentration (EC50) turned out to be 0.033 µg/mL.
